Data published in the DeepSol protein solubility set.

test: soluble on expression in E. coli; label from the status in PepcDB or PDB records

Sequence	soluble on expression in E. coli
QPDPPCGGRLNSKDAGYITSPGYPQDYPSHQNCEWIVYAPEPNQKIVLNFNPHFEIEKHDCKYDFIEIRDGDSESADLLGKHCGNIAPPTIISSGSMLYIKFTSDYARQGAGFSLRYEIFKTGSEDCSKNFTSPNGTIESPGFPEKYPHNLDCTFTILAKPKMEIILQFLIFDLEHDPLQVGEGDCKYDWLDIWDGIPHVGPLIGKYCGTKTPSELRSSTGILSLTFHTDMAVAKDGFSARYYLVHQEPLENFQCNVPLGMESGRIANEQISASSTYSDGRWTPQQSRLHGDDNGWTPNLDSNKEYLQVDLRFLTMLTAIATQGAISRETQNGYYVKSYKLEVSTNGEDWMVYRHGKNHKVFQANNDATEVVLNKLHAPLLTRFVRIRPQTWHSGIALRLELFGCRVTDAPCSNMLGMLSGLIADSQISASSTQEYLWSPSAARLVSSRSGWFPRIPQAQPGEEWLQVDLGTPKTVKGVIIQGARGGDSITAVEARAFVRKFKVSYSLNGKDWEYIQDPRTQQPKLFEGNMHYDTPDIRRFDPIPAQYVRVYPERWSPAGIGMRLEVLGCDWTHHHHHH	soluble
SLERLIRGMQYHYQWLTPFDAKRTTVVCLHGFTGTLATFAAVFPSQTPYNVLGIDLPGHGATASLVAPERYTMKQVCHDIAELTESLNLPCFCLLGYSMGARTALGFALHYPQKVQHLLLESGSPGLATAAERQARICQDHRLAERLLEEPLVDFIDFWQELPLFQTQKALSVAQQMAIRQERLSQSAFGLVSSLWYMGTGAQESYWERLAELQPIPTDLLVGGEDQKFIGIAKKMQARQPLLRLTIFPEAGHCIHLEQPTIFYEKVTALLEGAI	soluble
MDIKKFVARRKALQISQIKLSAGICTQATLSKFERRGRVPSLAILEQLCARLGLTVDELNEDQASSVTQMRQELDHIERQLMMEDYQVVLQALNRIAVSEIAAVPLRMQYYYLSGLLKSLINGAVSDVCFDFDQILDDLDQTHETVFTPLAYVGLGVMYSRLSELAKAQFYFEKVHQAVKQALVNGDDQDYLRLLTMIFYTAEYEATREDFTTSNGLINDGVSLCSEQHVTYYLPRLKYLATANAIQQCQPDEQIQQLLSETVAFARINHNQVVEVKAAALRRRYLQARKHA	not soluble
MSLQSLWIYPEDTEVLGAACKSLLKALKPRYQKIALFSPISGGCEGFGECESLSSLEVHSAIDKQKALELVSTAQEELLFETILKRYDELQSTHDFVINLGYAPKFFLNALLDLNTILAKHLNAPVVAVAQTSLDHLKAMHSHILKKEAPFAIGLFVGETLEKPHFLSASLCKQQCELEASAIENLLQTKSEIITPLAFQRSLEKKAKKQIKKVVLPESEDERILKAAHRLNLMGAVGLILLGDKEAINSQAKNLNLNLENVEIINPNTSHYREEFAKSLYELRKSKGLSEQEAERLALDKTYFATMLVHLGYAHAMVSGVNHTTAETIRPALQIIKTKPGVSLVSSVFLMCLDTQVFVFGDCAIIPNPSPKELAEIATTSAQTAKQFNIAPKVALLSYATGNSAQGEMIDKINEALTIVQKLDPQLEIDGPLQFDASIDKGVAKKKMPNSQVAGQASVFIFPDLNAGNIAYKAVQRSAKAVAIGPILQGLNKPINDLSRGALVEDIVNTVLISAIQAQDYEGHHHHHH	not soluble
MNHHLLSQAHLDKEKLVILVKEDEKMNSMHKDKPFFPLLIDYMSSGPVVAMLWEGCDVVKRARVILGEELEVGEFRSIFYDLVVRDTHKGCHCSDSVASANREYVLWFEEFKEGTRFD	not soluble
MSLRTTHIPLVAIVLASVCSSLAAPKAGGLELIILHNNDMHARFEQTGAYSNDCQPSDVASNRCYGGFARVAHKVREYRATEASGGLPVLYLNAGDTYTGTPWFSVFKDNITAAFLNILKPDAISLGNHEFDLGVEGLVPFLNEVDFPVLVTNLDLSKTPEMQTSRSLQRSIIFTKAGVRIGVIGYLTPETKQLAPINTVEFLDEIEEINKEATSLKNQGVNILIALGHSGLERDKEIAAQCPDVDLVIGGHSHTFLYSGTAPDVEDPAGPYPVMVKNAAGKEVPVVQAYAYTKYLGYLHLQFDTEGNLIELDGTPLLLNGTVERDSDVLQLLELYRPGILALDAQIGHSNVFLDSSRCRFEECNIGNMIADSLVITYATTREQSNDGFWTDAAIGFIQGGGIRASVNAGPITMKDLKTVLPFGNAMVVTDITGAQLRQMLEQSVHRYDGVSGYGEFLQMAGVNVEYDLSRPPMQRVVHVKVRCARCQVPAYEELQDDGVYRVILSQFLYDGGDGYEMLPGSPRQLLTFGEYEITEEYLKRYSPIYPAIEWRIRMQGQPNVTEGHHHHHH	soluble
MKDNNEVLKLFIVSDSIGETAQRMIHATLTQFPDLTQVEIKKFPYIKDEQEFLNVLQLAKEQNAIVATTLVSESFNALGHQFANEHQIPYVDYMSELISIIKQHTHAKPLMESGALRKLNDEYFKRIEAIEYSVKYDDGKHFTDIGEADALIVGVSRTSKTPLSMYLANKGYKIANIPLVPEVAIPDNVFQQKNLKVFGLTASPNYIANIRRNRAETLGLSSESNYNSLERIKKELSYAEEVFRKLNATVINTEYKSIEESAFYIEKFLAKRLEHHHHHH	not soluble
MSTGANLLVMNDTCKSNRWWKTKQEKKHSEIKKVKTLKSTWDKKMELKAKKDMVKRVQDNIREKQVQERQEKKERKVEQEKRRLENERKAEIVQKITKIHKLKKTKKRQLRSIQMRDTTQVTK	not soluble
VGVKPVGSDPDFQPELSGAGSRLAVVKFTMRGCGPCLRIAPAFSSMSNKYPQAVFLEVDVHQCQGTAATNNISATPTFQFFRNKVRIDQYQGADAVGLEEKIKQHLE	soluble
MSIAVTTTDPTNTGVSTTSSSSLTGSNAADLQSSFLTLLVAQLKNQDPTNPMENNELTSQLAQISTVSGIEKLNTTLGSISGQIDNSQSLQASNLIGHGVMIPGTTVLAGTGSEEGAVTTTTPFGVELQQAADKVTATITDKNGAVVRTIDIGELTAGVHSFTWDGTLTDGSTATNGSYNVAISASNGGTQLVAQPLQFALVQGVIRGNNGNTLDLGTYGTTILDEVRQII	soluble
MALDQSLVGRSYPPTAPYEVGREKIREFAEAVGDANPAYTDAEAAKALGHPDVIAPPTFVFSITFKAAGQVIEDPQLGLDYSRVVHGDQKFSYARPVRAGDRLTVTSTIEAIKSMAGNDILDIRGEVHDEAGEHVVTAWTKLVARAAEEALEHHHHHH	soluble
MGSDKIHHHHHHVGALLSKITATDLASTLTGDPEALHVHLTLVARDVSIKGHTVKIHCHCLTVDGNGRVQPHRLAEFMRNAVVDYAIPRSKVADAKARDLKYNSTEATTELVERAKRSFTDLANTGEGGEMLLFLLAERFLKLPQILCKMDLKTDTRMHYHGADGVYAGVTPSGTLKLYWGESKIYKKVGDAIRDCLASLAPFLIEPEHEDAERERDLILLSDKADLTNSELTGALKRYFDRSSEMSTRVQYCGVALVGFDAPFYPASDVKVLADQIVDGSRRALSDWSDKIGARLAAEKLSDMEIQLFCIPLPSADGFRAAFLKAMGIKGG	not soluble
MGSDKIHHHHHHMLCALKHLFQGEPQQQAVSGLISTSYTDNDGETRISLKLEPRYENAGEVITKLVELDADPQVVRVGIQSSSIASFGSLENLVNAYGTLYRYLKDNYDSPAKLKKYWGYLANDVVFIQISTDVSSALKIFETINERGVGLNPMDLLKNLLFTQVGQAQFTQLKDEWKKITRPLEKGKEKPLFDHFVMQLENFLFYYIFTKTPTRDMERSFSQWANELRAIADAAECRCHNQWQGIDS	not soluble
MGSDKIHHHHHHLKQLLLDIQPPAAPSLDNFVTGRNAEALFQLRRTVLEHDDARFIYLWGETGCGKTHLIQACNALASASGLDMICVDDVHLLSNDDQVALFDLYNQLRESGGRLIVSGLAAPSQMGLRDDLATRLAWGLSYQLHPLSDEEKTQALKNHAEARGMKLPDEVLDYCLRHLRRDMPSLIATIDALDEWSLISKRAVTLPLLKQLLQTST	not soluble
MACFLARFQFISPDSPATKAVTLQIKRSGQDMYACITGHSYSAPVFTVECKLKPDAEWVRDCMASFKEQMEAEGFLLNEGTSESTLPAQPAKKADLTLHDISAFFHLPVKAAASCLGVSQTYLKILCRRLGIDRWPYRKVASVKKHM	not soluble
MALVFVYGTLKRGQPNHRVLRDGAHGSAAFRARGRTLEPYPLVIAGEHNIPWLLHLPGSGRLVEGEVYAVDERMLRFLDDFESCPALYQRTVLRVQLLEDRAPGAEEPPAPTAVQCFVYSRATFPPEWAQLPHHDSYDSEGPHGLRYNPRENR	soluble
MKTLPPILSNIIEKVTNTEPANVEDKLPMNILVLGSDEKQGGRSDTIMLVHIQKDFQPIVISIPRDTRVKVEGIKGYSKINAAYAYGKSKLAVKTVEDILGIKIDKYVVVNYEAVEKIVDLVGGVDVEVPFHLYYVDTTPGKELYINIPAGLQHLDGKKAVEFLRWRHNSNGKEYGRGGDLGRIEMQRKLLYALIEKMLKPQNIVRLPLIVQTVSKYTDHNFTKNEIMWFIQNVGKFNTQNIMMTILPGYPKYIDRVSYYILNEEKCRALIDDLNEPEVLKDSMKIKILSKSFDDKATQLKNDLESKGYSNVNLGRVSKLESSEVELKRVNRKYLELLKNDIDLSTYQVVYSPDYSDKFDVYIKVKLEHHHHHH	soluble
MIKKIYFGNDHAAYEIKDQIITHLKQKGYQIIDEGAQAALGSVDYSTYALKVANDVVNDTKNDSIGILLCGTGIGMNIAASKVHGTRVALVYNESSAKLAKEHNNANIITIGARENSLNQILKMIDDFLTSKFLGERHQKRLDIIAKYEKEQNS	soluble
MSNSYEGCGDLTIFVAVALNKVIGHKNQIPWPHITHDFRFLRNGTTYIPPEVLSKNPDIQNVVIFGRKTYESIPKASLPLKNRINVILSRTVKEVPGCLVYEDLSTAIRDLRANVPHNKIFILGGSFLYKEVLDNGLCDKIYLTRLNKEYPGDTYFPDIPDTFEITAISPTFSTDFVSYDFVIYERKDCKTVFPDPPFDQLLMTGTDISVPKPKYVACPGVRIRNHEEFQYLDILADVLSHGVLKPNRTGTDAYSKFGYQMRFDLSRSFPLLTTKKVALRSIIEELLWFIKGSTNGNDLLAKNVRIWELNGRRDFLDKNGFTDREEHDLGPIYGFQWRHFGAEYLDMHADYTGKGIDQLAEIINRIKTNPNDRRLIVCSWNVSDLKKMALPPCHCFFQFYVSDNKLSCMMHQRSCDLGLGVPFNIASYSILTAMVAQVCGLGLGEFVHNLADAHIYVDHVDAVTTQIARIPHPFPRLRLNPDIRNIEDFTIDDIVVEDYVSHPPIPMAMSA	soluble
MLVPGRVYLFRIPEGKEIIEFLREFAEKENIKVGIISAIGTLRNPVIGYFMEEEKKYKEISLTGTYELLSLSGNISLKDGKPFVHAHVVLGDSEGRAFGGHLVRGEVFVAEVFVQELEGETLERKPTEHGLALWLEHHHHHH	not soluble
MGSDKIHHHHHHMPYFERDGYYIDRCPECRFVYVRNVPSDGTLAAFYSGYYGDVNEFVPVSRKRLSKRFSKSVENWWHARNLVRCAAGRRKLLEIGYGEGHLLMALKQTRRFELRGIDYATGPMAYMSANGIDVAQGSLFDQHYPDNRFEFIVGFHVLEHVQHLGEFMSEVRRVLAPAGRVYFVVPCVTHFSAVRRRQNWKHFGPPGHLWYFSVTAMRRFMTDQDFKVVSAHCISNRTHLTVLAEKTS	not soluble
